Data: patent US20100260775A1 (Pfizer, published 2010)
Read-outs that look alike come from different tables or passages of the source.

Assays:
Experiment in all cases: cell-based or functional assay
rat NGF [1] = target: T1, rat NGF (rat, UniProt P25427 122-241, limits assumed)
human NGF = human NGF (human, UniProt P01138 122-241, limits assumed)
rat NGF [2] = target: T1, rat NGF; remark: listed apart in the source
rat NGF [3] = target: T1, rat NGF; remark: listed apart in the source

human NGF, sequence (P01138 122-241 limits assumed): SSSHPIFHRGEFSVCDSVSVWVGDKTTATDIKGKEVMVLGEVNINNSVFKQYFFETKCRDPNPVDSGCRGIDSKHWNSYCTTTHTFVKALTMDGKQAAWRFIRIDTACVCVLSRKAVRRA
T1 sequence (P25427 122-241 limits assumed): as the sequence (P01138 122-241 limits assumed) above, with S3T, I6V, R9M, M37T, D60A, D65E, M92T, G94D, V117A, A120G counted along it

Molecule | IC50, inhibition of rat NGF-dependent survival of mouse E13.5 trigeminal neurons, 1.5 pM NGF (rat NGF [1]) [pM] | IC50, inhibition of rat NGF-dependent survival of mouse E13.5 trigeminal neurons, 15 pM NGF (rat NGF [1]) [pM] | IC50, inhibition of human NGF-dependent survival of mouse E13.5 trigeminal neurons, 1.5 pM NGF (human NGF) [pM] | IC50, inhibition of human NGF-dependent survival of mouse E13.5 trigeminal neurons, 15 pM NGF (human NGF) [pM] | IC50, inhibition of rat NGF-dependent survival of mouse E13.5 trigeminal neurons, 1.5 pM NGF (rat NGF [2]) [pM] | IC50, inhibition of rat NGF-dependent survival of mouse E13.5 trigeminal neurons, 15 pM NGF (rat NGF [2]) [pM] | IC50, inhibition of NGF-dependent survival of mouse E13.5 trigeminal neurons, 15 pM rat NGF (rat NGF [3]) [pM]
mouse antibody 911 (Fab) | 34.6 | 161 | 63.5 | 322 |  |  | 
3C (Fab) (Fab, V domains shown) VH: QVQLQESGPGLVKPSETLSLTCTVSGFSLIGYDLNWIRQPPGKGLEWIGIIWGDGTTDYNSAVKSRVTISKDTSKNQFSLKLSSVTAADTAVYYCARGGYWYATSYYFDYWGQGTLVTVS VL: DIQMTQSPSSLSASVGDRVTITCRASQSISNNLNWYQQKPGKAPKLLIYYTSRFHSGVPSRFSGSGSGTDFTFTISSLQPEDIATYYCQQERTLPYTFGQGTKLEIKR |  |  | 5.6 | 80.9 | 6 | 31.6 | 
H19-L129 (Fab, V domains shown) VH: QVQLQESGPGLVKPSETLSLTCTVSGFSLIGYDLNWIRQPPGKGLEWIGIIWGDGTTDYNSAVKSRVTISKDTSKNQFSLKLSSVTAADTAVYYCARGGYYYGTSYYFDYWGQGTLVTVS VL: DIQMTQSPSSLSASVGDRVTITCRASQSISNNLNWYQQKPGKAPKLLIYYTSRFHSGVPSRFSGSGSGTDFTFTISSLQPEDIATYYCQQSKTLPYTFGQGTKLEIKR |  |  | 9.6 | 60.1 | 6 | 31 | 
8L2-6D5 (CDR-grafted antibody with framework mutation V71K) (Fab, V domains shown) VH: QVQLQESGPGLVKPSETLSLTCTVSGFSLIGYDINWIRQPPGKGLEWIGMIWGDGTTDYNSALKSRVTISKDTSKNQFSLKLSSVTAADTAVYYCARGGYYYGTSYYFDYWGQGTLVTVS VL: DIQMTQSPSSLSASVGDRVTITCRASQDISNHLNWYQQKPGKAPKLLIYYISRFHSGVPSRFSGSGSGTDFTFTISSLQPEDIATYYCQQSKTLPYTFGQGTKLEIKR |  |  | 462 | 1580 | 169 | 730 | 
antibody E3 (Fab) (Fab, V domains shown) VH: QVQLQESGPGLVKPSETLSLTCTVSGFSLIGYDLNWIRQPPGKGLEWIGIIWGDGTTDYNSAVKSRVTISKDTSKNQFSLKLSSVTAADTAVYYCARGGYWYATSYYFDYWGQGTLVTVS VL: DIQMTQSPSSLSASVGDRVTITCRASQSISNNLNWYQQKPGKAPKLLIYYTSRFHSGVPSRFSGSGSGTDFTFTISSLQPEDIATYYCQQEHTLPYTFGQGTKLEIKR |  |  | < 1.2 | < 21 | < 1.3 | < 8.3 | ~31.6
